B1: RSFP2B6抗体 (antibody, V domains shown)
VH: QVQLVQSGGALAQPGRSLRLSCTTSGFTFGDYAVNWVRQAPGKGLEWVGIVRTEPYGGTTEYSASVKGRFIISRDDSKGIAYLQMNSLKTEDTGVYYCSQPILNVDVWGQGTTVTVSS
VL: NFMLTQPHSVSESPGKTVTISCTRSSGSFGSDYVQWYQQRPGSAPNTVIYENNQRPSGVPDRFSGSIDSSSNSASLTISGLKTEDEADYYCQSYDDNTPWVFGGGTELTVL
B2: RSFP2D9抗体 (antibody, V domains shown)
VH: EVQLVESGGGLVQPGGSLRLSCAASGFTFSTYEMNWVRQAPGKGLEWISYISVSGATIYYADSVKGRFTISRDNAKSSVYLQMTSLRPEDTAIYYCARDNSLTDYGSGLYWGQGTTVTVSS
VL: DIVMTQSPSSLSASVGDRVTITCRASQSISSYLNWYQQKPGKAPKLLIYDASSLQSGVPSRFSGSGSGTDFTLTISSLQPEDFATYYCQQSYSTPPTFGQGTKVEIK
B3: RSFP2G7抗体 (antibody, V domains shown)
VH: QVQLVQSGTEVRKPGSSVKVSCTASGGTFSIYDIFWVRQAPGQGLEWMGRIIPILDQIDYAQKFEGRVTITADKGRKTVYMELSSLRSDDTAVYYCARPPDTYDNIERWGPGTLVTVSS
VL: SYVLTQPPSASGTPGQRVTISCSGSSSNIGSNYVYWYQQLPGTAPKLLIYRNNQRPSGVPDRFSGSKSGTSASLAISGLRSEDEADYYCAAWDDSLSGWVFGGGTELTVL

Key:
[1] = biological target: RSV-A2 F假病毒上的F蛋白 (参考序列Uniprot:P03420) (RSV A2, UniProt P03420 26-574); assay: cell-based or functional assay
Sequence of RSV-A2 F假病毒上的F蛋白 (参考序列Uniprot:P03420) (P03420 26-574, one chain of several): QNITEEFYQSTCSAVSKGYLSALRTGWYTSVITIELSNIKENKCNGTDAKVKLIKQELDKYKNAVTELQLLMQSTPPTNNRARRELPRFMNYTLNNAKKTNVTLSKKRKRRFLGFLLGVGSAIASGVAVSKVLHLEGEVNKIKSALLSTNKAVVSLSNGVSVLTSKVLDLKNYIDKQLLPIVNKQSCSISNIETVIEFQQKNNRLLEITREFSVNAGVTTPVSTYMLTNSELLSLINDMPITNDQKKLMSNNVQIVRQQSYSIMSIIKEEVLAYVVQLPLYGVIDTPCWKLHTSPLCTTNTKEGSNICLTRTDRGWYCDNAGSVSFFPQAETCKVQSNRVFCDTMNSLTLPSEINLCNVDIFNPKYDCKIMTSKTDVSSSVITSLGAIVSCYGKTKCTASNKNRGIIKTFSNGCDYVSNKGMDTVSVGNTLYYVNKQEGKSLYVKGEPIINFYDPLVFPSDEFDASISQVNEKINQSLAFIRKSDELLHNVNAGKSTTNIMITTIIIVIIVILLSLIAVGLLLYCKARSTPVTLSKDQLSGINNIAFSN

RSV(strain A2)病毒的F蛋白 = RSV(strain A2)病毒的F蛋白 (RSV (strain A2), UniProt P03420 26-574); assay: cell-based or functional assay
Sequence of RSV(strain A2)病毒的F蛋白 (P03420 26-574): as the sequence (P03420 26-574, one chain of several) above

| Binder | 中和IC50 (RSV-A2假病毒, luciferase, 293T细胞) [1] [µg/mL] | 中和IC50 (RSV strain A2活病毒, focus count, 293T细胞) (RSV(strain A2)病毒的F蛋白) [µg/mL] |
| --- | --- | --- |
| B1 | 3.89 | 1 |
| B2 | 0.532 | 0.054 |
| B3 | 1.7 | 0.734 |
